According to US20030096741A1, “Enhanced mineral delivery” (priority 2000, published 2003):
Where two headings read alike, the source gives them in different places. Square brackets hold non-standard residues; d marks the D form. Ends that are not written are not given here. pS = N[C@@H](COP(=O)(O)O)C(=O)O

Assays:
[1] = system: bone specific gravity (femurs and tibias); assay: Bone specific gravity in growing rats fed a high sucrose diet; assay type: in vivo, Sprague-Dawley rats; conditions: high sucrose diet for 5 weeks, 6.25 or 3.125 mmol/kg of diet, both groups
Excerpt: A high sucrose diet is associated with a decrease in bone specific gravity in growing rats (reflecting reduced calcium and phosphorous content). See J. Nutr. 128:1807-1810 (1998). This decrease in bone density is reversed or prevented by carbamoyl phosphate supplementation. Sprague-Dawley rats were fed a high sucrose diet for 5 weeks, supplemented with carbarnoyl phosphate at either 6.25 or 3.125 mmol/kg of diet. […] Thus, carbamoyl phosphate modifies the effect of a high sucrose diet on bone growth.

[2] = 3P motif versus 2P motif; cited from earlier work
[3] = cited from earlier work
[4] = calcium binding, human β-CN variants by number of phosphorylated Ser residues, calculated from published binding studies, read-out: Average dissociation Constant

## NC(=O)OP(=O)(O)O [carbamoyl phosphate]
[1]
  specific gravities of femurs and tibias versus control rats receiving standard lab chow: not significantly different
  specific gravities of femurs and tibias versus rats on the same diet without carbamoyl phosphate: significantly higher

## 3P variant: Reynolds (WO 98/40406) 3P variant having the sequence motif SerP-SerP-SerP-Glu-Glu (SEQ ID NO: 1) ([pS][pS][pS]EE)
[2]
  calcium and phosphate binding strength relative to 2P synthetic homologues having the motif SerP-SerP-Glu-Glu: 2.5 times

B1: bovine β-CN: Bovine beta-casein (protein, UniProt P02666 16-224, looked up)
Beta-casein: RELEELNVPGEIVESLSSSEESITRINKKIEKFQSEEQQQTEDELQDKIHPFAQTQSLVYPFPGPIPNSLPQNIPPLTQTPVVVPPFLQPEVMGVSKVKEAMAPKHKEMPFPKYPVEPFTESQSLTLTDVENLHLPLPLLQSWMHQPHQPLPPTVMFPPQSVLSLSQSKVLPVPQKAVPYPQRDMPIQAFLLYQEPVLGPVRGPFPIIV
[3]; bovine β-CN, read-out: calcium dissociation constant
  Kd: 650 µM

B2: 4P: Human β-CN variant with four SerP residues, all three Ser in the target sequence phosphorylated (protein, UniProt P05814 16-226, looked up)
Beta-casein: RETIESLSSSEESITEYKQKVEKVKHEDQQQGEDEHQDKIYPSFQPQPLIYPFVEPIPYGFLPQNILPLAQPAVVLPVPQPEIMEVPKAKDTVYTKGRVMPVLKSPTIPFFDPQIPKLTDLENLHLPLPLLQPLMQQVPQPIPQTLALPPQPLWSVPQPKVLPIPQQVVPYPQRAVPVQALLLNQELLLNPTHQIYPVTQPLAPVHNPISV
modifications: four phosphoserines
[3]; [4]
  Kd: 810 µM

B3: 3P: Human β-CN variant with three phosphorylated Ser residues (protein, UniProt P05814 16-226, looked up)
Beta-casein: B2 Beta-casein
modifications: three phosphoserines
notes: Human β-CN variant with three phosphorylated Ser residues
[3]; [4]
  Kd: 860 µM

B4: 5P: Human β-CN variant with five phosphorylated Ser residues (protein, UniProt P05814 16-226, looked up)
Beta-casein: B2 Beta-casein
modifications: five phosphoserines
notes: Human β-CN variant with five phosphorylated Ser residues
[3]; [4]
  Kd: 420 µM

B5: 2P: Human β-CN variant with two SerP residues, only two of three Ser in the target sequence phosphorylated (protein, UniProt P05814 16-226, looked up)
Beta-casein: B2 Beta-casein
modifications: two phosphoserines
[3]; [4]
  Kd: 1210 µM

B6: 1P: Human β-CN variant with one phosphorylated Ser residue (protein, UniProt P05814 16-226, looked up)
Beta-casein: B2 Beta-casein
modifications: one phosphoserine
notes: Human β-CN variant with one phosphorylated Ser residue
[3]; [4]
  Kd: 1170 µM
